Four variants from publication PMC3507621 can be followed below.

The chains are these.
B1: wild type recombinant N-terminal region of PTX3 (N_PTX3) [human] / mouse TSG-6 (tumor necrosis factor-induced protein 6) [mouse] (parent)
chain 1: ENSDDYDLMYVNLDNEIDNGLHPTEDPTPCACGQEHSEWDKLFIMLENSQMRERMLLQATDDVLRGELQRLREELGRLAESLARPCAPGAPAEARLTSALDELLQATRDAGRRLARMEGAEAQRPEEAGRALAAVLEELRQTRADLHAVQGWATG
chain 2: WGFKNGIFHNSIWLEQAAGVYHREARAGRYKLTYAEAKAVCEFEGGRLATYKQLEAARKIGFHVCAAGWMAKGRVGYPIVKPGPNCGFGKTGIIDYGIRLNRSERWDAYCYNPHAKECGGVFTDPKRIFKSPGFPNEYDDNQVCYWHIRLKYGQRIHLSFLDFDLEHDPGCLADYVEIYDSYDDVHGFVGRYCGDELPEDIISTGNVMTLKFLSDASVTAGGFQIKYVTVDPASKSSQAKNTSTTGNKKFLPGRFSHL
B2: wild type recombinant N-terminal region of PTX3 (N_PTX3) [human] / mouse TSG-6 (tumor necrosis factor-induced protein 6) [mouse] (parent)
chain 1: B1 chain 2
chain 2: B1 chain 1

Variants of B1 are the subject of experiment [1]. Briefly: competition ELISA (bPTX3 detected with HRP-conjugated streptavidin). To be noted: with mouse TSG-6 (tumor necrosis factor-induced protein 6) [mouse], wells coated with TSG-6, read off a plot. On the technique in general: An ELISA detects its analyte on a solid surface through an enzyme-linked reagent.
The variants in experiment [2] derive from B2. Briefly: ELISA. To be noted: with mouse TSG-6 (tumor necrosis factor-induced protein 6) [mouse], pH 7.4, PBS with Ca2+ and Mg2+, read off a plot.
Where [3] appears, read: TSG-6 about 0.38 nM (est. from x axis), parent: 0.29.
[4] abbreviates: TSG-6 about 1.6 nM (est. from x axis), parent: 0.91.
Where [5] appears, read: TSG-6 about 6.2 nM (est. from x axis), parent: 1.7.
Where [6] appears, read: TSG-6 about 26 nM (est. from x axis), parent: 2.2.
The mark [7] stands for this setting: TSG-6 about 100 nM (est. from x axis), parent: 2.3.

With chain 1 ENSDDYDLMYVNLDNEIDNGLHPTEDPTPSASGQEHSEWDKLFIMLENSQMRERMLLQATDDVLRGELQRLREELGRLAESLARPSAPGAPAEARLTSALDELLQATRDAGRRLARMEGAEAQRPEEAGRALAAVLEELRQTRADLHAVQGWATG [chain 1 C30S C32S C86S], the screen value was determined as 97% in experiment [1] (competitor about 0.24 nM (est. from x axis), parent: 99); 93% in experiment [1] (competitor about 1.2 nM (est. from x axis), parent: 90); 84% in experiment [1] (competitor about 12 nM (est. from x axis), parent: 82); 64% in experiment [1] (competitor about 120 nM (est. from x axis), parent: 58); 29% in experiment [1] (competitor about 1200 nM (est. from x axis), parent: 17).
For chain 2 ENSDDYDLMYVNLDNEIDNGLHPTEDPTPSASGQEHSEWDKLFIMLENSQMRERMLLQATDDVLRGELQRLREELGRLAESLARPSAPGAPAEARLTSALDELLQATRDAGRRLARMEGAEAQRPEEAGRALAAVLEELRQTRADLHAVQGWATG [chain 2 C30S C32S C86S], the response in experiment [2] (setting [3]) is 0.31 O.D. (450nm); in experiment [2] (setting [4]) it was 0.91 O.D. (450nm); in experiment [2] (setting [5]), 1.7 O.D. (450nm); in experiment [2] (setting [6]) it was 2.2 O.D. (450nm); in experiment [2] (setting [7]), 2.2 O.D. (450nm).
Turning to chain 2 ENSDDYDLMYVNLDNEIDNGLHPTEDPTPCACGQEHSEWDKLFIMLENSQMRERMLLQATDDVLRGELQRLREELGRLAESLARPSAPGAPAEARLTSALDELLQATRDAGRRLARMEGAEAQRPEEAGRALAAVLEELRQTRADLHAVQGWATG [chain 2 C86S], the response is 0.3 O.D. (450nm) in experiment [2] (setting [3]); 0.91 O.D. (450nm) in experiment [2] (setting [4]); 1.6 O.D. (450nm) in experiment [2] (setting [5]); 2.2 O.D. (450nm) in experiment [2] (setting [6]); 2.3 O.D. (450nm) in experiment [2] (setting [7]).
On to chain 2 ENSDDYDLMYVNLDNEIDNGLHPTEDPTPSASGQEHSEWDKLFIMLENSQMRERMLLQATDDVLRGELQRLREELGRLAESLARPCAPGAPAEARLTSALDELLQATRDAGRRLARMEGAEAQRPEEAGRALAAVLEELRQTRADLHAVQGWATG [chain 2 C30S C32S], for which the response in experiment [2] (setting [3]) was 0.14 O.D. (450nm); in experiment [2] (setting [4]) it was 0.5 O.D. (450nm); in experiment [2] (setting [5]) it was 1.1 O.D. (450nm); in experiment [2] (setting [6]) it was 1.9 O.D. (450nm); in experiment [2] (setting [7]), 2.2 O.D. (450nm).
